Assay results: the supplement of paper PMC10724198
± gives the standard deviation of the averaged measurements.

Test system: Saccharomyces cerevisiae
Experiment: protein stability index of tFT-peptide fusion (C-terminal peptide) (PSI (0-1 scale)); higher = more stable (slower turnover)
Conditions: genetic background: wild type; temperature: 30 C
Method: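 Multiplexed protein stability (MPS) profiling in S. cerevisiae. Random 12-aa peptides (tFT-X12 library) are fused to the C-terminus of a sfGFP-mCherry tandem fluorescent timer, after mCherry and a GGGS linker. Cells are FACS-sorted into 8 mCherry/sfGFP bins and deep-sequenced. The protein stability index (PSI) is the read-weighted bin average, scaled from 0 (unstable) to 1 (stable). Only peptides with >10 reads are reported; cells were grown at 30 °C in SC-His with glucose.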
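Further: PSI is a weighted mean of sequencing reads over stability bins, variants kept only with over 10 reads, mCherry proximal and sfGFP distal, peptide attached via GGGS linker.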

Row | Sequence | protein stability index
1 | GCGRLWAGIGRR | 0.678 ± 0.023
2 | SRFSRAVSVARV | 0.666 ± 0.023
3 | TISFASLLPPPF | 0.723 ± 0.048
4 | VLNCVGLSLLVE | 0.6068 ± 0.00076
5 | VRGVGGLWVGAV | 0.684 ± 0.012
6 | YFSSSPVFPPHL | 0.667 ± 0.16
7 | PPPSPPPTSNPN | 0.742 ± 0.04
8 | SWCRCLALLDCT | 0.659 ± 0.028
9 | AAMKQAIKGPVK | 0.696 ± 0.019
10 | GRRMRGAEKQKK | 0.829 ± 0.16
11 | FDCMVRVRTTVV | 0.544 ± 0.027
12 | PPLLPLLCPHSL | 0.738 ± 0.016
13 | ASSSLLRCFSRF | 0.648 ± 0.062
14 | APSPLHFPPPPT | 0.67 ± 0.0048
15 | PSRPPALPPPAT | 0.721 ± 0.014
16 | VSVLCGSRLAFE | 0.685 ± 0.04
17 | CISIRKEERRKI | 0.7012 ± 0.0019
18 | NLLPFLGPLPRS | 0.781 ± 0.067
19 | AFFLDKASQLES | 0.694 ± 0.05
20 | GRGGRGWGEWDR | 0.706 ± 0.059
21 | FAPSAGGSLAGP | 0.698 ± 0.033
22 | PPPTPPPGTYSL | 0.579 ± 0.011
23 | QWFTCLFYFRSP | 0.5697 ± 0.0029
24 | GLADPPNSRPAG | 0.673 ± 0.05
25 | WCGQVFWCVKES | 0.699 ± 0.039

Row | Sequence | protein stability index
26 | SNFCIWRWWLGF | 0.6858 ± 0.0014
27 | RPRTLLARSTHP | 0.717 ± 0.013
28 | IPSKHKPSRIPI | 0.665 ± 0.014
29 | QRTQRGKQPGQR | 0.679 ± 0.08
30 | FPPARPDFPPST | 0.735 ± 0.025
31 | LLPSPRSSPPPS | 0.675 ± 0.091
32 | PPTPAPLSPPYV | 0.712 ± 0.026
33 | SLAPLPARAPPL | 0.725 ± 0.018
34 | ERNNTICREIIE | 0.686 ± 0.026
35 | KKGNKYNNKRKK | 0.69 ± 0.04
36 | VVCVGGVELLVL | 0.532 ± 0.019
37 | PQLNRKAATPQN | 0.641 ± 0.069
38 | HPPPDPPFLAST | 0.611 ± 0.042
39 | SNAGRRRTNRIP | 0.682 ± 0.03
40 | SPGPVTPRPSLR | 0.669 ± 0.019
41 | TYLSSPAPLLPL | 0.694 ± 0.033
42 | RVDLPFDRSVSD | 0.702 ± 0.057
43 | RGHKHSNNVSRR | 0.696 ± 0.019
44 | VRRLSASSDGKI | 0.761 ± 0.14
45 | GRQTEENRKRRV | 0.7 ± 0.037
46 | GYSPMGFSFFPV | 0.673 ± 0.047
47 | LFIGKEGWVACL | 0.562 ± 0.019
48 | VGGGVGGRDGAS | 0.659 ± 0.051
49 | APKVICPHLIRL | 0.68 ± 0.013
50 | GPCPCAPRSPSY | 0.6705 ± 0.0033

Row | Sequence | protein stability index
51 | LVGRRGVVGIVP | 0.63 ± 0.075
52 | RFETKERGIREK | 0.719 ± 0.014
53 | GKKKRKTKGKNR | 0.663 ± 0.035
54 | MRKGKGGGPRRR | 0.699 ± 0.023
55 | HFSPLILSSYTV | 0.693 ± 0.037
56 | FCRLSHYLSASP | 0.687 ± 0.17
57 | RHHRACLNTRLG | 0.671 ± 0.065
58 | LAGVTLPRPSSA | 0.6633 ± 0.0046
59 | GRCGGEGGGEEE | 0.673 ± 0.031
60 | PLPPPPPPPSPS | 0.835 ± 0.11
61 | HTGPTRPGHPLP | 0.703 ± 0.03
62 | GVGDELIRAEQT | 0.723 ± 0.018
63 | PAPLPPRPTSLP | 0.711 ± 0.011
64 | GFGRGRRGLEEN | 0.695 ± 0.024
65 | LRPRRCWNQWDM | 0.675 ± 0.048
66 | PSSEGHMEDTAA | 0.684 ± 0.018
67 | FCLIHCIVPFPV | 0.507 ± 0.093
68 | ARIQECLTKASK | 0.607 ± 0.095
69 | PTRPSRPPRPPP | 0.598 ± 0.026
70 | TFENLFRLPWFK | 0.699 ± 0.052
71 | TGRGGAPRAKEE | 0.699 ± 0.0039
72 | TNKKKNRNKKAK | 0.657 ± 0.073
73 | LAGGMTSRTVSI | 0.716 ± 0.0073
74 | VVSGIFQVLATC | 0.614 ± 0.084
75 | SLVGFLPLWPSS | 0.64 ± 0.0085

Row | Sequence | protein stability index
76 | SKLQGYRKLLST | 0.567 ± 0.0065
77 | PWGGVLGWGLVG | 0.608 ± 0.016
78 | VAVGLGRAVFGV | 0.611 ± 0.034
79 | KKIRKKLKKMKM | 0.644 ± 0.053
80 | TFSVPLPPPLAP | 0.6573 ± 0.0038
81 | EETRRKKRTGKK | 0.707 ± 0.0099
82 | PSPRSSPPCSAS | 0.693 ± 0.039
83 | YCSIVRSLGSPL | 0.698 ± 0.065
84 | WILDKECFKECD | 0.654 ± 0.046
85 | LRQALGRSEEPQ | 0.6728 ± 0.0065
86 | CKCRRYYTLNGG | 0.656 ± 0.025
87 | GNPDFQVTKNPY | 0.67 ± 0.078
88 | VERIALIPASRQ | 0.706 ± 0.035
89 | VIRDISAFSQVV | 0.677 ± 0.07
90 | AGGSTGMGARSR | 0.688 ± 0.015
91 | WPFHADPPPPVP | 0.6969 ± 0.0026
92 | SLLSCDETEFSS | 0.614 ± 0.051
93 | VGGRGGGRGVVG | 0.672 ± 0.0073
94 | PPPPLRPHHLTS | 0.696 ± 0.021
95 | TTSQGHLCVAPR | 0.6827 ± 0.0038
96 | LCQCAFLSFSCF | 0.61642 ± 1.1e-05
97 | PSPPRPPLPART | 0.763 ± 0.028
98 | KKKEKKRKEEKN | 0.824 ± 0.052
